The record followed here is the supplement of paper PMC9170038.

The data set concerns MS2 coat protein. Description: apparent KD of MS2 coat protein; designed switch direction (-1 OFF switch, 1 ON switch): 1; higher = weaker reporter binding. In a few lines:
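The apparent KD reported per design is the median over clusters of curve fits to normalised cluster fluorescence. The RNA switches were transcribed on Illumina chips by stalled E. coli RNA polymerase. SNAP-549-labelled MS2 coat protein was titrated from 0.7 or 1.5 nM, doubling up to 3 µM, in Tris-HCl pH 7.5 buffer containing KCl, MgCl2, BSA, DTT, tRNA and Tween-20, with no input, 200 uM small-molecule ligand, or an oligonucleotide input.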

Where [1] appears, read: input ligand: microRNA oligo, concentration not stated.
The mark [2] stands for this setting: Eterna round: R95, input ligand: FMN 200 uM.
Where [3] appears, read: Eterna round: R95, input ligand: microRNA oligo, concentration not stated.
Setting [4] is: Eterna round: R95, input ligand: none.

For the sequence “GGAAACAAGAGAGGAUAUGCAGAGGAUCACCCUGCAGAAGGCUCAAAAGAGAGGAUAUGCAGAGGAUCACCCUGCAGAAGGCUC [pwkr ssNG DX.27] (Eterna round: R96, puzzle: Same State NG 1)”, the “apparent KD of MS2 coat protein” value (input ligand: FMN 200 uM) was 0.0178 µM, the “apparent KD of MS2 coat protein” value under setting [1] turned out to be 0.0112 µM and the “apparent KD of MS2 coat protein” value (input ligand: none) stood at 0.0214 µM.

Take “GGAAACUUGAGAGGAUAUGUAGAGGAUCACCCUACAGAAGGCUCAAAAGAGAGGAUAUGUAGAGGAUCACCCUACAGAAGGCUC [pwkr ssNG DX.11] (Eterna round: R96, puzzle: Same State NG 1)”: the “apparent KD of MS2 coat protein” value (input ligand: FMN 200 uM) is 0.0249 µM, the “apparent KD of MS2 coat protein” value under setting [1] amounted to 0.0237 µM and the “apparent KD of MS2 coat protein” value (input ligand: none) came out at 0.0331 µM.

As for “GGAAAGAGGUAAGGAUAUGCAUGGCUGGGACAUGAGGAUCACCCAUGUAAUAGAAGAAAUCUAGGGUAGAAGGUACAAGGAAGG [AK SSNG2-V2-9] (Eterna round: R96, puzzle: Same State NG 2)”, the “apparent KD of MS2 coat protein” value reads like this: (input ligand: FMN 200 uM) 1.11 µM; under setting [1], 0.367 µM; (input ligand: none) 0.45 µM.

On to “GGAAGGAGGUCAGGAUAUGGAUGGAAGGUACAUGAGGAUCACCCAUGUUACGGAGGAAGGAAACGUUAGAAGGGAUAAGGAAGG [AK SSNG2-V2-2.1] (Eterna round: R96, puzzle: Same State NG 2)”, for which the “apparent KD of MS2 coat protein” value reads like this: (input ligand: FMN 200 uM) 0.0347 µM; under setting [1], 0.0249 µM; (input ligand: none) 0.0318 µM.

For the sequence “GGAAUAUUUACAGGAUAUCAUUUGUAAAUUCGAUGAGAAGGGUAGAUGUCUUACACGACGUGUUACAUGAGGAUCACCCAUGUU [SameState NG1 #7] (Eterna round: R96, puzzle: Same State NG 1)”, the “apparent KD of MS2 coat protein” value is, setting by setting: (input ligand: FMN 200 uM) 0.146 µM; under setting [1], 0.142 µM; (input ligand: none) 0.145 µM.

For the sequence “GGAGACAGAGCAGGAUAUGCUCCGAGUAACGAAGCAGAAGGGUUCGUAAAUCGUCGACAUGAGGAUCACCCAUGUGACCUAGUA [Eternabot solution 18] (Eterna round: R96, puzzle: Same State NG 1)”, the “apparent KD of MS2 coat protein” value reads like this: (input ligand: FMN 200 uM) 0.0207 µM; under setting [1], 0.0184 µM; (input ligand: none) 0.0247 µM.

With “GGAGCCGGCACCGAGGAUAUUCAUAUUAAAACAUGAGGAUCACCCAUGUAGGCCAGAAGGCCUUGGGAGAAGGCGGACCGGCUCG [Xeonanis - 4] (Eterna round: R96, puzzle: Same State 2)”, the “apparent KD of MS2 coat protein” value turned out to be 0.0274 µM (input ligand: FMN 200 uM), 0.165 µM under setting [1] and 0.287 µM (input ligand: none).

Take “GGAGCCGGCACCGAGGAUAUUCAUAUUAAAACAUGAGGAUCACCCAUGUAGGCCAGAAGGCCUUGGGAGAAGGCGGACCGGCUCG [Xeonanis - 4] (puzzle: Same State 2)”: the “apparent KD of MS2 coat protein” value runs as follows: under setting [2], 0.024 µM; under setting [3], 0.52 µM; under setting [4], 0.664 µM.

Take “GGAGCCGGCACUGAGGAUAUUCAUAGUGUAACAUGAGGAUCACCCAUGUAGGCCCUGAGGCCUUGGGAGAAGGCAGGUCGGCUCG [JL-ss2-3.04 ViennaUCT mod] (puzzle: Same State 2)”: the “apparent KD of MS2 coat protein” value amounted to 0.0318 µM under setting [2], 0.239 µM under setting [3] and 0.445 µM under setting [4].

Take “GGAGCCGGUACUGAGGAUAUUCAUCUUAAAACAUGAGGAUCACCCAUGUAGGCCAGAAGGCCUUGGGAGAAGGCAGAUCGGCUCC [Biseusra - 7] (puzzle: Same State 2)”: the “apparent KD of MS2 coat protein” value is, setting by setting: under setting [2], 0.02 µM; under setting [3], 0.0522 µM; under setting [4], 0.066 µM.

On to “GGAGGACAUGAGGAUCACCCAUGUGGAUGGGCGCUAGGAUAUGCGAGAGGAGGGAGUGGAGCAGAAGGAGUGGGUU [JR_SS1_Sub043] (puzzle: Same State 1)”, for which, under setting [3], the “apparent KD of MS2 coat protein” value turned out to be 0.0503 µM.

For “GGAGUCGGCACUGAGGAUAUUCAUAUUUAAACAUGAGGAUCACCCAUGUAGGCCAGAAGGCCUUGGGAGAAGGCAGGUCGGCUCG [salish99_ss2_r3_084] (puzzle: Same State 2)”, the “apparent KD of MS2 coat protein” value is, setting by setting: under setting [2], 0.0225 µM; under setting [3], 0.154 µM; under setting [4], 0.241 µM.

“GGAUCGUCGGCAGGAUAUGAGCAAGUGCAUCGAUCAGAAGGGUCGAGUCCUAGAAGGUAAAGCACAUGAGGAUCACCCAUGUAG [Eternabot solution 39] (Eterna round: R96, puzzle: Same State NG 1)”: the “apparent KD of MS2 coat protein” value runs as follows: (input ligand: FMN 200 uM) 0.0407 µM; under setting [1], 0.0637 µM; (input ligand: none) 0.0963 µM.

As for “GGCAGGUGCAGGCUUGCUUGCACCUGGAAACAUGAGGAUCACCCAUGUUUGGGACAAGCUUUGCUCCUCGUCUUGUC [JL ViennaUCT Isusreraar mod 2] (Eterna round: R96, puzzle: Sensor for hsa-mir-208a)”, the “apparent KD of MS2 coat protein” value reads like this: (input ligand: FMN 200 uM) 0.0384 µM; under setting [1], 0.0392 µM; (input ligand: none) 0.0428 µM.

As for “GGCAGGUGCAGGCUUGCUUGCACCUGGAAACAUGAGGAUCACCCAUGUUUGGGACAAGCUUUGCUCCUCGUCUUGUC [JL ViennaUCT Isusreraar mod 2] (puzzle: Sensor for hsa-mir-208a)”, the “apparent KD of MS2 coat protein” value came out at 0.0282 µM under setting [2], 0.0365 µM under setting [3] and 0.0367 µM under setting [4].

As for “GGCCAGAGUCAAGGAUAUGCUACCGUUUCGGUAGCAGAAGGUGAUCACAUGAGGAUCACCCAUGUAUACUGCGAGAGUAGGGCC [JL SSNG1 3.66] (Eterna round: R96, puzzle: Same State NG 1)”, the “apparent KD of MS2 coat protein” value is 0.0945 µM (input ligand: FMN 200 uM), 0.0236 µM under setting [1] and 0.197 µM (input ligand: none).

With “GGCCAGAGUCAAGGAUAUGCUACCGUUUCGGUAGCAGAAGGUGAUCACAUGAGGAUCACCCAUGUUUACUGCGAGAGCAUGGCC [JL SSNG1 3.68] (Eterna round: R96, puzzle: Same State NG 1)”, the “apparent KD of MS2 coat protein” value stood at 0.809 µM (input ligand: FMN 200 uM), 0.103 µM under setting [1] and 0.0341 µM (input ligand: none).

Turning to “GGCCAGAGUCAAGGAUAUGCUACCGUUUCGGUAGCAGAAGGUGAUCACAUGAGGAUCACCCAUGUUUACUGCGAGAGUAUGGCC [JL SSNG1 3.67] (Eterna round: R96, puzzle: Same State NG 1)”, the “apparent KD of MS2 coat protein” value is, setting by setting: (input ligand: FMN 200 uM) 0.661 µM; under setting [1], 0.197 µM; (input ligand: none) 0.214 µM.

As for “GGCGAACAGGCUAACAUGAGGAUCACCCAUGUGGACUUCGUGUAGGAUAUCGGGAAGGAGGAAACCGAGAAGGGCGAAGAAGCC [AK SSNG3-V2-49.1] (Eterna round: R96, puzzle: Same State NG 3)”, the “apparent KD of MS2 coat protein” value turned out to be 0.0552 µM (input ligand: FMN 200 uM), 0.0481 µM under setting [1] and 0.0551 µM (input ligand: none).

For the sequence “GGCGCCGGCGCAGGAUAUAAUAGCACCAACAAAUUAGAAGGGUGUCUGACUUAAACAUGAGGAUCACCCAUGUGCGCCACAAAA [Eternabot solution 2] (Eterna round: R96, puzzle: Same State NG 1)”, the “apparent KD of MS2 coat protein” value reads like this: (input ligand: FMN 200 uM) 0.198 µM; under setting [1], 0.137 µM; (input ligand: none) 0.311 µM.

Regarding “GGCUAUCGCGUACGAUAGCUGAAGCGUGUACAUGAGGAUCACCCAUGUCAUGUACAAGCUUUUUGCUCGUCUUAUUG [JL-shm-2.33 JL mod] (puzzle: Sensor for hsa-mir-208a)”, the “apparent KD of MS2 coat protein” value turned out to be 0.155 µM under setting [2], 0.0182 µM under setting [3] and 0.328 µM under setting [4].

“GGGCCAGCUUGUGCUGGGCCUUCGCAUGCACAUGAGGAUCACCCAUGUCGUGUACAUGCUUGGUGCCCGUCUUUAAA [Photon Torp-13] (puzzle: Sensor for hsa-mir-208a)”: the “apparent KD of MS2 coat protein” value reads like this: under setting [2], 0.102 µM; under setting [3], 0.0139 µM; under setting [4], 0.103 µM.

As to “GGGUGUGGAAGGAAAGAUAGGAAAAGGAAACAUGAGGAUCACCCAUGUGAAGGAAGAAAGGGAGCUCGUCUUAUAAG [JR_SHM208A_Sub001] (puzzle: Sensor for hsa-mir-208a)”, the “apparent KD of MS2 coat protein” value reads like this: under setting [2], 0.0274 µM; under setting [3], 0.0227 µM; under setting [4], 0.0235 µM.

With “GGUAGGUUACUACCAAACAUGAGGAUCACCCAUGUAAGUGGGAAGGAUAUGGUACCUUUUAGGUACCAGAAGGUCCAUAUAGUU [JL Fiskers NG3ss - 2 mod 9] (Eterna round: R96, puzzle: Same State NG 3)”, the “apparent KD of MS2 coat protein” value was determined as 0.405 µM (input ligand: FMN 200 uM), 0.141 µM under setting [1] and 0.501 µM (input ligand: none).

As to “GGUAGGUUACUACCAGACAUGAGGAUCACCCAUGUAAGUGGGAAGGAUAUGGUACCUUUUAGGUACCAGAAGGUCCAUAUAGUU [JL SSNG3 1.43] (Eterna round: R96, puzzle: Same State NG 3)”, the “apparent KD of MS2 coat protein” value is, setting by setting: (input ligand: FMN 200 uM) 0.253 µM; under setting [1], 0.429 µM; (input ligand: none) 1.08 µM.

Regarding “GGUAGGUUACUACCAUACAUGAGGAUCACCCAUGUAAAUGGGAAGGAUAUGGUACCUAUUUGGUACCAGAAGGUCCAAUUAAUU [JL Fiskers NG3ss - 2 mod 3] (Eterna round: R96, puzzle: Same State NG 3)”, the “apparent KD of MS2 coat protein” value is, setting by setting: (input ligand: FMN 200 uM) 0.148 µM; under setting [1], 0.446 µM; (input ligand: none) 0.706 µM.

As to “GGUAUCUCCAGUGAGGAUAUGCGGCGUAGAACAUGAGGAUCACCCAUGUCCUUCGAAUGGGUUACGCAGAAGGCACUACGGUACC [Robot Arm] (puzzle: Same State 2)”, under setting [3], the “apparent KD of MS2 coat protein” value stood at 0.0301 µM.
